The values below come from paper PMC9101108, “Shifting CCR7 towards Its Monomeric Form Augments CCL19 Binding and Uptake” (Cells, 2022).

Residue numbers refer to the chain shown, from its start.

Common to all, as to conditions: one partner purified
In test [1] the target is T1, human CCR7 A315G fused to YPet (human, UniProt P32248 25-378, A315G).
T1 construct: chemokine receptor CCR7, human (hCCR7), point mutant A315G; also called hCCR7-YPet A315G; source: HeLa, transiently transfected (pcDNA3 hCCR7-YPet A315G), on cells; not shown: YPet, C-terminal, kept
T1 sequence (looked up): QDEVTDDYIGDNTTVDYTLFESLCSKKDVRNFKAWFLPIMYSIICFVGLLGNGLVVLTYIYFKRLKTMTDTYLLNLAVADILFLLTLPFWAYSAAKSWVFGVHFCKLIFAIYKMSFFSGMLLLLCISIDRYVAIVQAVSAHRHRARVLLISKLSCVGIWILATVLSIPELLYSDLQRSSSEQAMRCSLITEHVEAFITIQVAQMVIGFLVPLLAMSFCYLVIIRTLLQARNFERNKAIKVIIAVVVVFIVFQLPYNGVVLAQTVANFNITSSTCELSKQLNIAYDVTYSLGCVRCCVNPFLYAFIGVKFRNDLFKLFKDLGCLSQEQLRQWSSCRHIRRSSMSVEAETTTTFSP
Description: flow cytometry on cells; HeLa cells transiently expressing YPet-tagged CCR7 variants incubated at 4 °C for indicated times with 25 nM CCL19-S6^649P1, washed, MFI (chemokine binding). For orientation: In flow cytometry, cells or beads pass a laser one at a time.

The target in test [2] is T2, human CCR7 L325S fused to YPet (human, UniProt P32248 25-378, L325S).
T2 construct: chemokine receptor CCR7, human (hCCR7), point mutant L325S; also called hCCR7-YPet L325S; source: HeLa, transiently transfected (pcDNA3 hCCR7-YPet L325S), on cells; not shown: YPet, C-terminal, kept
T2 sequence (looked up): T1 sequence (looked up) with G291A, L301S
The test is described as above.

The target of test [3] is T3, human CCR7 SNP V317I fused to YPet (human, UniProt P32248 25-378, V317I).
T3 construct: chemokine receptor CCR7, human (hCCR7), naturally occurring SNP V317I; also called CCR7 V317I; hCCR7-YPet V317I; source: HeLa, transiently transfected (pcDNA3 hCCR7-YPet V317I), on cells; not shown: YPet, C-terminal, kept
T3 sequence (looked up): T1 sequence (looked up) with G291A, V293I
Description: flow cytometry on cells; competition: HeLa cells transiently expressing YPet-tagged CCR7 variants, 37 °C, 30 min, 25 nM CCL19-S6^649P1 with graded concentrations of native unlabelled hCCL19; MFI (binding and uptake).

Test [4] concerns the target T1, human CCR7 A315G fused to YPet. The test is described as above.
Test [5] concerns the target T2, human CCR7 L325S fused to YPet. The test is described as above.
The target of test [6] is T4, human CCR7 wild-type fused to YPet (hCCR7-YPet) (human, UniProt P32248 25-378).
T4 construct: chemokine receptor CCR7, human (hCCR7); also called CCR7 WT; wild-type CCR7; source: HeLa, transiently transfected (pcDNA3 hCCR7-YPet), on cells; not shown: YPet, C-terminal, kept
T4 sequence (looked up): T1 sequence (looked up) with G291A
Described as above.

B1: human CCL19-S6 site-specifically labelled with Dy649P1 (hCCL19-S6^649P1) (ligand, UniProt Q99731 22-98, looked up)
chain: GTNDAEDCCLSVTQKPIPGYIVRNFHYLLIKDGCRVPAVVFTTLRGRQLCAPPDQPWVERIIQRLQRTSAKMKRRSS
modifications: Dy649P1 covalently and site-specifically attached (CoA-Dy649P1, SFP synthase)
On to B1, for which the “fold fluorescence of bound CCL19-S6^649P1 against wild-type CCR7” value in test [1] and in test [2] was about 2 fold throughout.

B2: native human CCL19 (hCCL19), unlabelled (ligand, UniProt Q99731 22-98, looked up)
chain: B1 chain
As usually defined, the Kd is the free concentration of one partner at which half of the binding sites on the other are occupied at equilibrium, for simple one-to-one binding. High values mean weaker binding, low ones tighter binding. Take B2: the Kd was about 0.031 µM in test [3], about 0.01 µM in test [4], about 0.007 µM in test [5] and about 0.029 µM in test [6].
